Consider 5 substances from the supplement of paper PMC5998384.

In data set [1] the test system is HeLa Kyoto. As to the kind of experiment: thermal stability score vs G1/S (z-score of summed log2 fold changes over temperatures); higher = more thermally stable than in G1/S.
The test system of data set [2] is HeLa Kyoto. Nature of the data set: melting temperature (median over replicates), in situ; higher = more thermally stable.
Data set [3] relates to HeLa Kyoto. As to the kind of experiment: solubility change mitosis vs G1/S (difference of NP-40 vs SDS log2 ratios) (log2 ratio difference); higher = more soluble in mitosis.
Data set [4] relates to HeLa Kyoto. Nature of the data set: solubility in G1/S (NP-40 vs SDS abundance) (log2 ratio); higher = more soluble. As to conditions: cell cycle stage: G1/S.
Setting [5] is: cell cycle stage: early G1 (4.5 h after nocodazole release).
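Throughout, for melting temperature (median over replicates), in situ: HeLa Kyoto cells synchronized by double thymidine or nocodazole block, proteins quantified by TMT10plex mass spectrometry, three independent biological replicates.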
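Throughout, for solubility change mitosis vs G1/S (difference of NP-40 vs SDS log2 ratios): synchronized HeLa Kyoto cells (double thymidine block for G1/S, nocodazole release for mitosis), protein amounts in NP-40 versus SDS lysates quantified by mass spectrometry, three biological replicates.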
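Throughout, for solubility in G1/S (NP-40 vs SDS abundance): HeLa Kyoto cells arrested at G1/S by double thymidine block, proteins quantified by TMT10plex mass spectrometry in mild NP-40 versus SDS extracts, three biological replicates.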
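Throughout, for thermal stability score vs G1/S (z-score of summed log2 fold changes over temperatures): synchronized HeLa Kyoto cells, proteins quantified by TMT10plex mass spectrometry, three biological replicates, mitosis taken 0.5 h after nocodazole release, G1/S directly after double thymidine block.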

As to NCOR1, the thermal stability score in data set [1] (setting [5]) was 0.817; in data set [1] (cell cycle stage: mitosis), 5.94. In addition, the melting temperature in data set [2] (cell cycle stage: G1/S) was found to be 48.5 °C; in data set [2] (cell cycle stage: mitosis), 52.2 °C. The “solubility change mitosis (log2)” value in data set [3] came out at 0.0133. Also, the “solubility in G1/S (log2)” value in data set [4] is -0.0922.

“MERAVPLAVPLGQTEVFQALQRLHMTIFSQSVSPCGKFLAAGNNYGQIAIFSLSSALSSEAKEESKKPVVTFQAHDGPVYSMVSTDRHLLSAGDGEVKAWLWAEMLKKGCKELWRRQPPYRTSLEVPEINALLLVPKENSLILAGGDCQLHTMDLETGTFTRVLRGHTDYIHCLALRERSPEVLSGGEDGAVRLWDLRTAKEVQTIEVYKHEECSRPHNGRWIGCLATDSDWMVCGGGPALTLWHLRSSTPTTIFPIRAPQKHVTFYQDLILSAGQGRCVNQWQLSGELKAQVPGSSPGLLSLSLNQQPAAPECKVLTAAGNSCRVDVFTNLGYRAFSLSF [THOC6]”: the thermal stability score in data set [1] (setting [5]) was -0.465; in data set [1] (cell cycle stage: mitosis) it was -0.675. The melting temperature in data set [2] (cell cycle stage: G1/S) is 51.8 °C; in data set [2] (cell cycle stage: mitosis), 51.2 °C. For the same substance, the “solubility change mitosis (log2)” value in data set [3] was determined as 0.108. Also, in data set [4], the “solubility in G1/S (log2)” value is -0.108.

On to “MKDVPGFLQQSQNSGPGQPAVWHRLEELYTKKLWHQLTLQVLDFVQDPCFAQGDGLIKLYENFISEFEHRVNPLSLVEIILHVVRQMTDPNVALTFLEKTREKVKSSDEAVILCKTAIGALKLNIGDLQVTKETIEDVEEMLNNLPGVTSVHSRFYDLSSKYYQTIGNHASYYKDALRFLGCVDIKDLPVSEQQERAFTLGLAGLLGEGVFNFGELLMHPVLESLRNTDRQWLIDTLYAFNSGNVERFQTLKTAWGQQPDLAANEAQLLRKIQLLCLMEMTFTRPANHRQLTFEEIAKSAKITVNEVELLVMKALSVGLVKGSIDEVDKRVHMTWVQPRVLDLQQIKGMKDRLEFWCTDVKSMEMLVEHQAHDILT [PSMD13]”, for which the figures for the thermal stability score in data set [1] (setting [5]) and in data set [1] (cell cycle stage: mitosis) were 1.44 and 2.56, respectively. Further, the melting temperature in data set [2] (cell cycle stage: G1/S) was found to be 53.2 °C; in data set [2] (cell cycle stage: mitosis), 51.3 °C. The “solubility change mitosis (log2)” value in data set [3] was -0.181. In data set [4], the “solubility in G1/S (log2)” value was 0.0175.

As for “MSRIESLTRARIDRSRELASKTREKEKMKEAKDARYTNGHLFTTISVSGMTMCYACNKSITAKEALICPTCNVTIHNRCKDTLANCTKVKQKQQKAALLKNNTALQSVSLRSKTTIRERPSSAIYPSDSFRQSLLGSRRGRSSLSLAKSVSTTNIAGHFNDESPLGLRRILSQSTDSLNMRNRTLSVESLIDEAEVIYSELMSDFEMDEKDFAADSWSLAVDSSFLQQHKKEVMKQQDVIYELIQTELHHVRTLKIMTRLFRTGMLEELHLEPGVVQGLFPCVDELSDIHTRFLSQLLERRRQALCPGSTRNFVIHRLGDLLISQFSGPSAEQMCKTYSEFCSRHSKALKLYKELYARDKRFQQFIRKVTRPAVLKRHGVQECILLVTQRITKYPLLISRILQHSHGIEEERQDLTTALGLVKELLSNVDEGIYQLEKGARLQEIYNRMDPRAQTPVPGKGPFGREELLRRKLIHDGCLLWKTATGRFKDVLVLLMTDVLVFLQEKDQKYIFPTLDKPSVVSLQNLIVRDIANQEKGMFLISAAPPEMYEVHTASRDDRSTWIRVIQQSVRTCPSREDFPLIETEDEAYLRRIKMELQQKDRALVELLREKVGLFAEMTHFQAEEDGGSGMALPTLPRGLFRSESLESPRGERLLQDAIREVEGLKDLLVGPGVELLLTPREPALPLEPDSGGNTSPGVTANGEARTFNGSIELCRADSDSSQRDRNGNQLRSPQEEALQRLVNLYGLLHGLQAAVAQQDTLMEARFPEGPERREKLCRANSRDGEAGRAGAAPVAPEKQATELALLQRQHALLQEELRRCRRLGEERATEAGSLEARLRESEQARALLEREAEEARRQLAALGQTEPLPAEAPWARRPVDPRRRSLPAGDALYLSFNPPQPSRGTDRLDLPVTTRSVHRNFEDRERQELGSPEERLQDSSDPDTGSEEEGSSRLSPPHSPRDFTRMQDIPEETESRDGEAVASES [ARHGEF2]”, the thermal stability score in data set [1] (setting [5]) was 0.217; in data set [1] (cell cycle stage: mitosis) it was 2.08. Further, the melting temperature in data set [2] (cell cycle stage: G1/S) and in data set [2] (cell cycle stage: mitosis) was 48.4 °C throughout. In addition, in data set [3], the “solubility change mitosis (log2)” value is -0.0226. In addition, the “solubility in G1/S (log2)” value in data set [4] was -0.137.

In the case of “MALTSFLPAPTQLSQDQLEAEEKARSQRSRQTSLVSSRREPPPYGYRKGWIPRLLEDFGDGGAFPEIHVAQYPLDMGRKKKMSNALAIQVDSEGKIKYDAIARQGQSKDKVIYSKYTDLVPKEVMNADDPDLQRPDEEAIKEITEKTRVALEKSVSQKVAAAMPVRAADKLAPAQYIRYTPSQQGVAFNSGAKQRVIRMVEMQKDPMEPPRFKINKKIPRGPPSPPAPVMHSPSRKMTVKEQQEWKIPPCISNWKNAKGYTIPLDKRLAADGRGLQTVHINENFAKLAEALYIADRKAREAVEMRAQVERKMAQKEKEKHEEKLREMAQKARERRAGIKTHVEKEDGEARERDEIRHDRRKERQHDRNLSRAAPDKRSKLQRNENRDISEVIALGVPNPRTSNEVQYDQRLFNQSKGMDSGFAGGEDEIYNVYDQAWRGGKDMAQSIYRPSKNLDKDMYGDDLEARIKTNRFVPDKEFSGSDRRQRGREGPVQFEEDPFGLDKFLEEAKQHGGSKRPSDSSRPKEHEHEGKKRRKE [SNW1]”, the thermal stability score was 0.202 in data set [1] (setting [5]) and -3.38 in data set [1] (cell cycle stage: mitosis). The melting temperature was 52.3 °C in data set [2] (cell cycle stage: G1/S) and 50.8 °C in data set [2] (cell cycle stage: mitosis). Further, the “solubility change mitosis (log2)” value in data set [3] is 0.482. Besides, the “solubility in G1/S (log2)” value in data set [4] was -0.328.
